# Experimental data taken from patent US11066655B2, “RNA polymerase, methods of purification and methods of use” (President and Fellows of Harvard College, priority 2013, dated 2021).
# Tests used:
# [1] = test system: E. coli total aminoacyl-tRNA synthetases; assay: tRNA aminoacylation assay of RNAP products; format: biochemical; settings: for desired (functional) tRNA in total RNA products: without gel extraction, maximum charging at 30 min
# Description: FIGS. 11A-11B depict synthesis of tRNA^Arg by Syn5 and T7 RNA polymerase. A) Synthesis of tRNA^Arg at analytical scale by various amounts of Syn5 and T7 RNA polymerase. Using radioactively labeled CTP, the tRNA^Arg and N+1 product (as marked) produced by 22, 67, 200 nM Syn5 and T7 RNA polymerase at 37° C. are shown. […] The DNA encoding E. coli tRNA^ArgACG is directly downstream of a Syn5 or T7 promoter for the cognate RNA polymerase to synthesize run-off tRNA transcript. B) Synthesis of tRNA^Arg at preparative scale by Syn5 and T7 RNA polymerase. The sequencing gel is showing the analysis of the total RNA products by Syn5 and T7 RNAP at 37° C. in a 200 µl reaction. RNAs were purified by either ZYMO RNA clean kit or phenol/chloroform extraction followed by ethanol precipitation (P/C/E), as noted on top of the gel. The native tRNA^Arg (with modifications) overexpressed and purified from E. coli cells was used as a size marker. The two major bands in the total RNAs are tRNA^Arg and N+1 product as marked.
# tRNA Aminoacylation Assay tRNA aminoacylation assay was performed as described previously (Tan et al.). A reaction containing 100 mM Tris-HCl, pH 7.5, 30 mM KCl, 12 mM MgCl2, 0.5 mM DTT, 4 mM ATP, 0.2 […]RNA (purified native E. coli tRNA^Arg (Zhu et al. (2012)), or purified tRNA^Arg transcripts from Syn5 or T7 RNAP reaction using RNA Clean & Concentrator™-5 kit), 15 µM [^3H] arginine (15 Ci/mmol), and 4 µM E. coli total aminoacyl-tRNA synthetases was incubated at 37° C. for the indicated time period. 5 µl reaction mixtures were spotted onto Whatman DE(81) filters and reactions stopped by 10% TCA solution containing 0.5 mM arginine. The filters were washed twice with 10% TCA and once with ethanol, and then dried. The amount of amino acid charged to tRNA was determined by measuring radioactivity remained on the filters.
# [2] = test system: linearized pET24-Syn5RNAP; assay: Long run-off RNA synthesis and incorporation of modified nucleotides (yield by A260); format: biochemical
# Description: FIGS. 12A-12B depict synthesis of long run-off product and the incorporation of modified nucleotides by Syn5 and T7 RNA polymerase. A) On the linearized plasmid template as shown in the schematic, the production of RNA by either RNA polymerase (10 nM) was analyzed on agarose gel as lane 2. […] Lane 3 and 4 show the same RNA synthesis when CTP was replaced by 5mCTP and UTP by Ps-UTP, respectively. B) Incorporation of UTP or Ps-UTP into small RNA by 22, 67, and 200 nM Syn5 and T7 RNA polymerase as analyzed by denaturing TBE polyacrylamide gel. Full-length run-off product and the N+1 product are shown.
# The plasmid pET24 harboring the Syn5 RNAP gene (pET24-S5RNAP) that contains a single Syn5 promoter in the RNAP gene and a single T7 promoter preceding the gene was used for filter binding assay as shown in FIG. 8. pET24-S5RNAP was also linearized by EcoRI treatment and recovered by gel extraction to serve as template for FIG. 12A.
# For the results shown in FIG. 12A, reaction mixtures (10 μl) contained 40 mM Tris-HCl pH 8.0, 6 mM MgCl2, 2 mM spermidine, 10 mM DTT, 600 µM[…]P, GTP, CTP (or 5Me-CTP), and UTP (or Pseudo-UTP), 1.5 U/µl RNaseOUT™ recombinant ribonuclease inhibitor, 0.04 U/µl yeast inorganic pyrophosphatase, 10 nM linearized (NotI treated) pET24-Syn5RNAP, 0 or 160 mM KCl, and 10 nM Syn5 or T7 RNAP. Syn5 reaction was carried out at RT and T7 at 37° C. RNA products were then purified with RNA Clean & Concentrator™-5 kit into a final solution of 10 µl and 5 µl each was mixed with 5 µl denaturing RNA loading dye. Samples were then heated at 65° C. for 5 min and loaded onto 1.6% TAE agarose gel. RNA products were visualized by ethidium bromide staining. For FIG. 12B, reaction mixtures (10 μl) containing 40 mM Tris-HCl pH 8.0, 6 mM MgCl2, 2 mM spermidine, 10 mM DTT, 200 µM[…]P, GTP and UTP (or Pseudo-UTP), 10 µM [[…]-^32P]CTP, 1.5 U/µl RNaseOUT™ recombinant ribonuclease inhibitor, 0.5 μM DNA templates S5P-tDNAR or T7P-tDNAR, and various amount of Syn5 or T7 RNAP were incubated at RT (for Syn5 RNAP) or 37° C. (for T7 RNAP) for 30 min before adding of one unit of DNase I to each reaction mixture and an additional incubation of 15 min at 37° C. Reactions were then terminated by the addition of 4 µl of loading dye containing 95% formamide and 40 mM EDTA. Samples were then heated at 90° C. for 1 min and 4 µl sample each was loaded onto 6% TBE-Urea denaturing polyacrylamide gel. After electrophoresis, gels were dried and analyzed using a Fuji BAS 1000 Bioimaging Analyzer.
# [3] = CTP and UTP present, 1500 nt run-off transcript, optimal temperature of each RNAP
molecule,measurement,setting,value
"T7 RNAP: RNA polymerase encoded by bacteriophage T7, from New England Biolabs [reference compound]",desired (functional) tRNA in total RNA products,[1],15%
same,yield of RNA,[2]; 160 mM KCl,completely inhibited
same,"yield of RNA, based on A260",[2]; [3],0.64 µg
same,"yield of RNA, based on A260",[2]; CTP replaced by 5mCTP,0.75 µg
same,"yield of RNA, based on A260",[2]; UTP replaced by Ps-UTP,0.59 µg
"Syn5 RNAP: single subunit DNA-dependent RNA polymerase from marine cyanophage Syn5, amino acid sequence SEQ ID NO:23 (protein, Amino acid sequence of a cyanophage Syn5 RNAP) MSFDLIARQLQRETEAAELARKRLQDARREANERSYASSNIESRKAIATFLDPIAQRIGERLFTLRRGTGAVDAAEVYKHLKNADHHHLALITMKTALDVLGKDPEPQIQQLTTAIGRNIQLELRLTYYAEENPELYKQASRFFHAGTGTRQKATVIKLKFNREGIEWDQWSRVTCHKVGQWLMLAMADVTGWIERATDRTSGGRKTKTRICYSREFLQHRDTILAAAEQLAFCQWPMLCPPIEWSNDHNGGYLSEQIRRVNPLIRKTGPLGTRKQGDIPLAMLNNLQGQAYKVNPEVLDIANHCYESNVTVGKFIRHAPLPVPPSPGEDCTEDQLTAYKRARREAEDFNAQISQKNWRTTEVMYVARKYADEASFWMPASFDYRGRVYFLNTALNPQGTDFDKALLYFAEEGPVNEWWLSFHVATTYGLDKETMVNRVQWARDNHELIDRIASDPVRHTEWHDADEPWCFLAACLEYKACVIDGTKQTSGLPIGIDATCSGLQHLAAMTRCGRTAALVNVTPTDKPADAYKTVAQASLKHLPKEQHEWITRKVTKRPVMCTPYGVTMSSARGYIRDQLVKDGHKEDLRSPGVLNGIVKAIFNEAIPEVIPGPVQVMAWLKRSAGQIIDRGDSTITWTTPSGFEVVQDLKKSKTYEVKTRIMGGARIKLQVGDGFTDEPDRDHHKSALAPNVVHSNDASLLHLTFAFWDKPFTVIHDCVLGRSCDMDQMGSDIRLHFAEMYKADVMQDWADQVGVELPVDLIKNTLDIDSVNQSLYFFS",amino acid charging activity of products,"[1]; [3H] arginine, 37° C.",much higher than that obtained from the T7 RNAP reaction
same,desired (functional) tRNA in total RNA products,[1],40%
same,yield of RNA,[2]; 160 mM KCl,0.31 µg
same,yield relative to that in the absence of salt,[2]; 160 mM KCl,about 50%
same,"yield of RNA, based on A260",[2]; [3],0.69 µg
same,"yield of RNA, based on A260",[2]; CTP replaced by 5mCTP,0.76 µg
same,"yield of RNA, based on A260",[2]; UTP replaced by Ps-UTP,0.63 µg
